Test results as given in the domain aggregation screens of Martell et al. (2025).

Assay: soluble fraction after stress (log2 fold change); higher = more stays soluble; pooled small domains, quantitative proteomics
Conditions: stress: 50 degC
Summary of the method: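 Pooled custom libraries of small protein domains were each held under stress at 50°C. The read-out, high-throughput quantitative proteomics, tracked how much of each protein stayed soluble. This is reported as a base-two log fold change used to indicate aggregation propensity. Higher values mean more protein remains in solution.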

| Sequence | soluble fraction (log2) |
| --- | --- |
| HMQVDENNINKRIDKYLSENTEYSRSTIQKMIDNGNITVNSKPTKSSYKLELNDIITIDNNFKE | 0.369 |
| HMDYADISYKIFMNHIKNGQVERVELSGDPRIMGKLKDGTYFVTDNPRTENFKEFLLLNNVQVIETN | 0.43 |
| HMGQLTDKQILLFSGKLAYEPTFASKYSKAGESYDDFIIRISGDLTDPKKIKEYSPYLKELGF | -0.161 |
| HMGSPVTAVMNRVLNETERQIVTLHVISGFKHREIAELLEKPVGTVLWTYNNALGKMRKAMQRE | -1.33 |
| HMSIAEMSGARKSAILLLALDEDSAAEIFKYLSAGEVQEISMEMAKLNQVSHDDMKAVLEAFHKETEEFV | -0.542 |
| HMHGQGTYTSPDGTKYVGDWQDEKMHGQGTYTYPDGMKFVGEFKDNKPWNGTGYDKYGNVKATFSNGVGKS | 0.066 |
| HMYIKYETVLQNITERIAALRKNGTLVLDGERTLAAEFDASRGTIRKAMRQLEENGTILREGYVTRILPE | -1.61 |
| HMNADAIIGRMGKVTEPITPDGYGRVEIDGDSWKATAVGGVAIAEGTRVSVVSLDSIIITVKTV | -0.293 |
| HMGGNVYAYRLTASVKSGEQIPANKIEKVKMLSSDLPTNYVPDTVNVTAYKSKLDLQAGTILSTSLLYEN | 0.0242 |
| HMGENTIFSGVLGEGRLDSALAHALPQFSRARIQGLIAEDAVLIAGKATNDAASKKFAGQSFELSVPAPRP | 0.105 |
| HMNEKGTNSTINEITRISKPGRRVYVGSAEIPKVKSGRGLVLISTSKGVMTGAEAAKAKLGGELLLKV | 0.0901 |
| HMESEIYKKIEKSRLLELAFTKSQKGDLTGAYDLYYQAFTKYDVIADNQNRYFEDFISLIRRKQQQD | -0.739 |
| HMKNMSLGERIKEQRKSSGLSQEKVAEFVGVSRQAVTKWETGQSAPSTENLFKLAEIFGTTVDILLA | 0.000199 |
| HMRKEDYLPIGSVINMDDRKFRVDSVDFDKDKVSLQDMALADARMPIFWEEPLTVVRELYEQQDE | 0.0652 |
| HMSATPQRMTIIDALDSSGKNLSAYELLDLLNDKGQLFNISTIYRVLDFWIEMGIVHKINSSNTYL | 0.125 |
| HMFIEMDEPEKILHRILNEANGKLELDKIGYRAEWPIGKVLTVLMSLELKGVVQSHPGKVYSL | -0.154 |
| HMKKILLGDVNLDGKVDVNDVTLLQRYIAGETEVITSKDALTATNFNKDGNIDVLDVTDIQTFIANSE | 0.0836 |
| HMSREEFLAGLEEALAGEVPASVIRENLNYYNSYISQEMAKGRTVDEIVDEIGEPRIVARTIIDSSEAAGE | 0.0724 |
| HMNMLGSNIKYLRNRHKLSQQELSEKLGVPRSSLSDYERGHTQVGLDSLIKLADIFDVKIDDLLRSNLSHR | -0.0552 |
| HMTKTEFLEALRRALNGNMAAASVEDNLKFYENYFYSEEAKGRSEAAVLSELGDPRILARTLIDAAER | 0.0765 |
| HMEEPFRIEKKGDIYYISGKTVERLVAMTDLDNDSAVKRLQRTLKRMGVEDALREHGINPGDTVVIGNYEF | -0.0245 |
| HMVKDIEFSLPLEQDYYKVLISVKDSQGKRQVYEELHRAGDTVYAAVRYYGSGELEIHLNGKFYKTIK | -0.521 |
| HMFPDLTGDELRIVDLLNTANDLQVNIITAKTNLPISRVTSLLFQLEMKGVVKPLAGGMYHLLG | -1.31 |
| HMESPSGGHRIALAFDQGTARAVDATYARLTGAGYEGRTKPWDAPWGQRYATVFDPDGNSVDLFAALE | -0.263 |
| HMPELPEVETSRRGIEPHLVGATILHAVVRNGRLRWPVSEEIYRLSDQPVLSVQRRAKYLLLELQA | 0.0555 |
| HMSITKDNLSIGTNIRISGFSDIGRIISIPNKGNQVQVQIGSAKMNIKINSIVEIIKEEKDFNKNISN | -0.102 |
| HMNAISIDEAKKIALAKVSGASDQHIRIEADHDDGRLVYEGEIHYGRVEYEFEIDGSTGAIIEWDADRK | -0.341 |
| HMKQEFEMGLPNGVGEQMLAHAIEKFDVKLEHSEFGPKLIGTYEELEKAKVFLYEAIEARLNQLE | -0.0154 |

| Sequence | soluble fraction (log2) |
| --- | --- |
| HMSAPTAFSERELELLAGMRRGASNKAMAEQLFISVNTVKYHRANLMRKLGARDRNEALEVAARLG | -0.0071 |
| HMEYYDDEELDRFRGVEADAYDEDAVNEFRDVLYTLQEIEVAGWLRSLQLRAINLPDELKDEAFLI | -1.64 |
| HMGESYGPVRRGETLWSIAEKVKPAGVSTQKELAAIYAANPQAFIRGDINLLKAGAELRLPSPEAL | 0.172 |
| HMKGTVKFFNESKGFGFITEEGTNKEHFVHVSGLVDEIRENDEVEFDLQDGRKGLNAVNVRV | 0.231 |
| HMELEIPGELIEAVRRLRDERQRMRLAGELAARQIQMHPERYTEASIDPVQTWDELRARILALA | -0.248 |
| HMSNVKVYPNPTSGKLTIDAENYKGVEVYDTSGRLIVKSELRTIDLEEQSKGLYLLKVNANGTTQEFKVFK | 0.0145 |
| HMEVLEGFIEDIKFKSEESGYTVAKLNNRNKSIVIVGTMPFISEGQHVKLTGEWKIHQKFGAQFNVKELEE | -0.347 |
| HMETMSYAEFNAIRIGKAKLMLADPSLKIWEISEAVGYTDTAHFARTFKKLEGMSANEYRNSL | -1.12 |
| HMTLGSVRTVRQVLDDGRLLVADSGGNVTLVRRAGTLAKENVNTGDRVSVDSSVRFALTLIPV | -0.0338 |
| HMNDNFTPDDLNRLARIKDLPQAKKYALELISNKSAKPMKPEKVRWFANQLQKKKSVMDITKMMYDLLLA | -0.0441 |
| HMGTGADKNSWTIGDKVKHRKWGTGTVVKVTGAGEDAELDIAFKSEGIKRLLAAFAPIEKVK | -0.034 |
| HMYHNKFADLAGFIAFNEKNEEIFTFGKYKGQNVKEVFQRDIGYYGWLQNADFPLYTKKVFTAIQLRSR | -2.16 |
| HMGAAIEYGDRGNTVLQAQRLLIARGYMAGSADGIYGRQMEQAVKRFQKEQGLPESGVVDRRTLQVLIRSR | -0.626 |
| HMTNVYSLIGKRGIVVEDIDWQKGTGQVKIDGELWSVKTNEQINISKGTEVEVENIEGVKVFVKPI | 0.09 |
| HMDTETLIDKYQLNASEAAVLRFMDKNRDSLRDLGIRDVARASYVSTATIVNMAKKIGYSGYSELVFAYGS | -1.09 |
| HMFDFLELGQAIQDAREKQRITREELAEELGISARHLQSVEKEGQYPSFRLFIQLVTMFHISVDQYI | -0.0829 |
| HMSSDEDELESIIKRVFADNPIELERLQNGEDKLIKFFMGLVMRQTKGKYPPKIIIDLLNKS | -0.411 |
| HMLSRNEWLVMEALWERPSTLMELVRQLGQEPPGWAKSTTATMVRRMEEKGLIRHEAGSKARVYHP | -0.885 |
| HMSTTYLNEGDRITLTDSVNIRTSMSETADRVGLAYQGDVVTVIMSYAEGWTKVSWNGQTGYAKTEYL | -0.617 |
| HMHVYQSLVTDRVVPGGGYRTTEAILSTEAWRNTLLEQAKRELIGVRNKYASLTELAKVWTAIDTVT | -0.586 |
| HMIAGHLQEKKGFFYIVLSYPDAAGKRKTKWFPTKLSVKGNKKKAEVMLMDARKTFVPPETPL | -0.501 |
| HMLEAMDSDEAAKVIEQIVNERADFVRSKGMGAIGPLMGPVMGALRGKVDGKQANELLTAAIKKLL | 0.273 |
| HMLPDGEAFVKVNTSLNIRTGPWGQIVGWFHNNDKVKIIGRDGDWYKISHNGQTRYIHSRYVSSSR | -0.913 |
| HMQNDDLTKLDGIGPYIEQRLNDIGIYNYEQLSKLNTEDIQKITELIDFFPGRIERDNWVSQAQLLKI | -0.316 |
| HMTDSISLTLNGDPRPFRAGATVADLVRDIGLDPAKVAVERNLEIVPRSTLENVHLADGDVLEIVHFV | 0.0403 |
| HMLSDFHLNHDSIVNHTVQKKETIFSLSKKYGLSINEIIKANPGIQIDKLKRRSILIIPLRKK | -1.9 |
| HMNSSTYIVTFKVDGEEDIVETYQWGDRIIVPEVEAKDDYVFIGWDAQIPEFMPERNLEFTAI | -1.14 |
